Test results from the supplement of paper PMC7877785.
± gives the uncertainty stated by the source.

Test: self-splicing fitness, log relative to wild type (ln ratio); higher = more splicing; Tetrahymena group I intron in knt gene, E. coli kanamycin selection, DiMSum; sequences stand for … in CUCUCU…GGAGGGAAAAGUUAUCAGGCAUGCACCUGGUAGCUAGUCUUUAAACCAAUAGAUUGCAUCGGUUUAAAAGGCAAGACCGUCAAAUUGCGGGAAAGGGGUCAACAGCCGUUCAGUACCAAGUCUCAGGGGAAACUUUGAGAUGGCCUUGCAAAGGGUAUGGUAAUAAGCUGACGGACAUGGUCCUAACCACGCAGCCAAGUCCUAAGUCAACAGAUCUUCUGUUGAUAUGGAUGCAGUUCACAGACUAAAUGUCGGUCGGGGAAGAUGUAUUCUUCUCAUAAGAUAUAGUCGGACCUCUCCUUAAUGGGAGCUAGCGGAUGAAGUGAUGCAACACUGGAGCCGCUGGGAACUAAUUUGUAUGCGAAAGUAUAUUGAUUAGUUUUGGAGUACUCGUGGUCG
Procedure, shortened: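 Fitness was computed with DiMSum as the error-weighted combination of replicate fold changes, kanamycin versus none, each normalised to wild type. The library randomised all eight intron nucleotides of the P1ex region, with the intron placed in the knt kanamycin-resistance gene on pET-22b(+) in E. coli BL21(DE3). Six replicate transformations were grown overnight at 37°C or 30°C on LB agar with or without 25 μg/mL kanamycin, plus 100 μg/mL carbenicillin, 50 μM IPTG and 0.2% rhamnose. Pooled colonies were amplicon-sequenced on an Illumina HiSeq 2500.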

Sequence | self-splicing fitness (ln) (30 °C) | self-splicing fitness (ln) (37 °C)
UUUAAGCAAUAUUACGGGCG | -0.49 ± 0.13 | 0.635 ± 0.21
ACCCAGCAAUAUUACGAUAU | -1.72 ± 0.1 | -0.318 ± 0.11
UAUGAGCAAUAUUACGUACA | -2.39 ± 0.18 | -1.62 ± 0.23
UAGUAGCAAUAUUACGGGGU | -3 ± 0.17 | -2.89 ± 0.22
GCUAAGCAAUAUUACGGCGA | -0.936 ± 0.1 | -0.247 ± 0.13
UACCAGCAAUAUUACGAGUC | -1.59 ± 0.12 | -1.24 ± 0.12
CUGCAGCAAUAUUACGCAUG | -2.5 ± 0.12 | -1.8 ± 0.14
CCUUAGCAAUAUUACGACGG | -2.31 ± 0.17 | -2.95 ± 0.3
GACCAGCAAUAUUACGUUUU | -0.363 ± 0.036 | -0.174 ± 0.052
UGGCAGCAAUAUUACGGGAU | -2.84 ± 0.23 | -2.48 ± 0.23
UAAUAGCAAUAUUACGUAAG | -2.47 ± 0.21 | -0.977 ± 0.15
GCGAAGCAAUAUUACGCAAA | -3.14 ± 0.22 | -2.07 ± 0.17
GGUAAGCAAUAUUACGAAAG | -3.68 ± 0.47 | 
UUCGAGCAAUAUUACGGACA | -2.7 ± 0.22 | -1.79 ± 0.17
UAGGAGCAAUAUUACGGGAG | -2.69 ± 0.27 | -2.96 ± 0.36
GGAAAGCAAUAUUACGAGUU | -1.86 ± 0.1 | -1.08 ± 0.12
ACUGAGCAAUAUUACGGCCA | -2.43 ± 0.28 | -2.07 ± 0.33
UUGCAGCAAUAUUACGCUAU | -2.99 ± 0.25 | -1.16 ± 0.17
CCUUAGCAAUAUUACGCUCG |  | -1.73 ± 0.27
AGUCAGCAAUAUUACGGCGC | -0.611 ± 0.13 | -0.0744 ± 0.18
CUACAGCAAUAUUACGAUAU | -3.89 ± 0.22 | -1.4 ± 0.22
AGGAAGCAAUAUUACGAGCG | -1.96 ± 0.24 | -1.08 ± 0.22
UCCAAGCAAUAUUACGUUGA | -0.725 ± 0.061 | -0.109 ± 0.073
GAUUAGCAAUAUUACGUGAG | -1.33 ± 0.073 | 0.0593 ± 0.096
CCAUAGCAAUAUUACGCGUG | -2.23 ± 0.095 | -0.856 ± 0.085

Sequence | self-splicing fitness (ln) (30 °C) | self-splicing fitness (ln) (37 °C)
CAUGAGCAAUAUUACGGGGA | -3.14 ± 0.19 | -3.03 ± 0.22
UUCAAGCAAUAUUACGUGAU | -1.8 ± 0.096 | -0.468 ± 0.11
UCAUAGCAAUAUUACGCAGG | -3.24 ± 0.17 | -3.01 ± 0.17
UGGUAGCAAUAUUACGCUUU | -1.85 ± 0.12 | -1.46 ± 0.12
UCGAAGCAAUAUUACGCUAC | -2.18 ± 0.26 | 
GGGGAGCAAUAUUACGUCGG |  | -1.07 ± 0.36
GUCAAGCAAUAUUACGCGGU | -3.16 ± 0.39 | -1.82 ± 0.31
UUAAAGCAAUAUUACGGUUU | -2.12 ± 0.075 | -1.22 ± 0.097
ACCGAGCAAUAUUACGACAA | -2.37 ± 0.22 | -2.4 ± 0.26
CCGCAGCAAUAUUACGUUCU | -3.87 ± 0.19 | -3.16 ± 0.26
AUAUAGCAAUAUUACGUCCG |  | -1.64 ± 0.43
CAGCAGCAAUAUUACGAGGU | -2.8 ± 0.16 | -2.42 ± 0.21
GAUAAGCAAUAUUACGUAAA | -2.24 ± 0.17 | -1.19 ± 0.17
GAGAAGCAAUAUUACGUUGA | -3.28 ± 0.21 | -1.19 ± 0.17
UGCAAGCAAUAUUACGAUGC | -3.55 ± 0.3 | 
AGCCAGCAAUAUUACGUGGU | -3.52 ± 0.14 | -3.58 ± 0.2
CGGAAGCAAUAUUACGGUUG | -0.585 ± 0.059 | -0.061 ± 0.085
GCCGAGCAAUAUUACGUGGA | -1.68 ± 0.12 | -1.76 ± 0.15
AUACAGCAAUAUUACGAUCU | -0.478 ± 0.077 | -0.0165 ± 0.087
CAGCAGCAAUAUUACGCGCC | -1.71 ± 0.25 | -0.362 ± 0.22
ACCUAGCAAUAUUACGAGAU | -2.54 ± 0.091 | -1.3 ± 0.098
GAUUAGCAAUAUUACGUGAU | -3.04 ± 0.11 | -1.07 ± 0.091
GUAUAGCAAUAUUACGUGCA | -0.903 ± 0.19 | -0.516 ± 0.18
GAACAGCAAUAUUACGAAUG | -2.42 ± 0.092 | -1.52 ± 0.096
GAGAAGCAAUAUUACGACCG | -0.945 ± 0.32 | -0.457 ± 0.27

Sequence | self-splicing fitness (ln) (30 °C) | self-splicing fitness (ln) (37 °C)
UUUCAGCAAUAUUACGGAAU | -3.77 ± 0.23 | -2 ± 0.2
UAGUAGCAAUAUUACGUUAC | -3.78 ± 0.2 | -2.97 ± 0.23
AAUCAGCAAUAUUACGACAU | 0.114 ± 0.011 | 0.208 ± 0.032
ACAGAGCAAUAUUACGCAUA | -3.96 ± 0.31 | -1.8 ± 0.2
ACUUAGCAAUAUUACGCAUA | -1.74 ± 0.12 | -1.42 ± 0.14
CAUCAGCAAUAUUACGAAAG | -0.638 ± 0.065 | -0.249 ± 0.087
AGAAAGCAAUAUUACGGGUC | -3.05 ± 0.21 | -3.35 ± 0.31
CAUUAGCAAUAUUACGCUUG | -2.46 ± 0.2 | -2.6 ± 0.2
CUGAAGCAAUAUUACGCUAA |  | -2.45 ± 0.32
CAUAAGCAAUAUUACGUCUG | -0.477 ± 0.065 | -0.45 ± 0.082
AAUCAGCAAUAUUACGGCCG | -0.87 ± 0.12 | 0.00722 ± 0.18
GAUAAGCAAUAUUACGCAGG | -1.69 ± 0.13 | -2.95 ± 0.21
AGACAGCAAUAUUACGCCGG | -2.95 ± 0.18 | -1.67 ± 0.16
GCCUAGCAAUAUUACGGGUA | -0.787 ± 0.072 | 0.611 ± 0.067
GGACAGCAAUAUUACGGUAA | -1.34 ± 0.082 | -0.697 ± 0.075
GUGUAGCAAUAUUACGCGUC | -3.17 ± 0.21 | -0.598 ± 0.14
CCCGAGCAAUAUUACGGGCU | -3.98 ± 0.26 | -2.65 ± 0.21
CAUCAGCAAUAUUACGGAGA | -1.78 ± 0.14 | -1.3 ± 0.12
AGCCAGCAAUAUUACGUCGC | -3.44 ± 0.35 | -2.74 ± 0.21
CCAUAGCAAUAUUACGCCGC | -1.47 ± 0.21 | 
GACGAGCAAUAUUACGAGGC | -3.33 ± 0.18 | -2.85 ± 0.29
UAGCAGCAAUAUUACGGAAU | -3.87 ± 0.44 | -2.13 ± 0.33
AUUUAGCAAUAUUACGUAUC |  | -2.15 ± 0.32
AUAUAGCAAUAUUACGGGCG | -1.47 ± 0.17 | -0.59 ± 0.15
CGCGAGCAAUAUUACGCGGG | -3.4 ± 0.17 | -3.6 ± 0.25

Sequence | self-splicing fitness (ln) (30 °C) | self-splicing fitness (ln) (37 °C)
AGGAAGCAAUAUUACGUAUC | -3.45 ± 0.22 | -2.88 ± 0.15
UCGAAGCAAUAUUACGGGGU | -4.05 ± 0.21 | -2.25 ± 0.17
GGAGAGCAAUAUUACGCACG |  | -0.798 ± 0.47
GAGUAGCAAUAUUACGUACC | -1.54 ± 0.17 | -0.923 ± 0.27
CGGGAGCAAUAUUACGGACG | -2 ± 0.14 | -2.14 ± 0.23
UCAGAGCAAUAUUACGUUCU | -3.86 ± 0.22 | -2.47 ± 0.25
GUUGAGCAAUAUUACGGUGC | -2.79 ± 0.3 | -2.39 ± 0.44
CCGCAGCAAUAUUACGGUCC | -3.73 ± 0.23 | -1.99 ± 0.23
GCCUAGCAAUAUUACGUCAC | -3.49 ± 0.24 | -2.04 ± 0.22
CACAAGCAAUAUUACGCCUG | -1.87 ± 0.16 | -0.812 ± 0.19
AUCUAGCAAUAUUACGAGAU | -2.88 ± 0.26 | -2.31 ± 0.34
CGGGAGCAAUAUUACGGUCG | -2.77 ± 0.24 | -2.43 ± 0.27
AUAUAGCAAUAUUACGUUCU | -1.47 ± 0.18 | -0.302 ± 0.21
GACCAGCAAUAUUACGAGAC | -0.715 ± 0.15 | -1.49 ± 0.18
CCACAGCAAUAUUACGGCUA | -3.88 ± 0.16 | -2.89 ± 0.15
CAAGAGCAAUAUUACGUGUG | -2.56 ± 0.1 | -1.5 ± 0.092
ACACAGCAAUAUUACGAGCA | -1.44 ± 0.12 | -1.45 ± 0.13
AAGAAGCAAUAUUACGCCAU | -2.82 ± 0.24 | -2.62 ± 0.27
ACCGAGCAAUAUUACGCAGG | -4.2 ± 0.47 | -2.65 ± 0.41
CUCUAGCAAUAUUACGCUUA | -4 ± 0.37 | -3.06 ± 0.27
CACUAGCAAUAUUACGAGAU | -3.87 ± 0.39 | -2.97 ± 0.2
AUAAAGCAAUAUUACGGCGC | 0.0765 ± 0.13 | 0.21 ± 0.14
AGUCAGCAAUAUUACGUAAA | -1.71 ± 0.12 | -0.231 ± 0.11
